Our source for the Analyte rlus and % Cross-reactivity values is US20120122239A1.

In experiment [1] the target is glycosylated human proBNP (HyTest, Turku, Finland; Catalog No. 8GOB2) (human). Put plainly: sandwich CMIA, capture 15C4, analyte 86.6 pM.
Experiment [2] deals with human NT-pro B-type natriuretic peptide (HyTest, Turku, Finland; Catalog No. 8NT1) (human). Nature of the experiment: sandwich CMIA, capture 15C4, analyte 86.6 pM.
Experiment [3] addresses human pro B-type natriuretic peptide (HyTest, Turku, Finland; Catalog No. 8PRO8) (human). Put plainly: sandwich CMIA, capture 15C4, analyte 86.6 pM.
Experiment [4] has as its target glycosylated human proBNP (HyTest, Turku, Finland; Catalog No. 8GOB2) (human). Nature of the experiment: sandwich CMIA, capture 15F11, analyte 288.7 pM.
In experiment [5] the target is human NT-pro B-type natriuretic peptide (HyTest, Turku, Finland; Catalog No. 8NT1) (human). Put plainly: sandwich CMIA, capture 15F11, analyte 288.7 pM.
Experiment [6] concerns the target human pro B-type natriuretic peptide (HyTest, Turku, Finland; Catalog No. 8PRO8) (human). Put plainly: sandwich CMIA, capture 15F11, analyte 288.7 pM.
For experiment [7], the target named is glycosylated human proBNP (HyTest, Turku, Finland; Catalog No. 8GOB2) (human). Put plainly: sandwich CMIA, capture 15C4, analyte 0.0 pM (blank).
The target of experiment [8] is human NT-pro B-type natriuretic peptide (HyTest, Turku, Finland; Catalog No. 8NT1) (human). The experiment is described as above.
In experiment [9] the target is human pro B-type natriuretic peptide (HyTest, Turku, Finland; Catalog No. 8PRO8) (human). The experiment is described as above.
Chain of human pro B-type natriuretic peptide (HyTest, Turku, Finland; Catalog No. 8PRO8) (human) (chain, as listed by the source): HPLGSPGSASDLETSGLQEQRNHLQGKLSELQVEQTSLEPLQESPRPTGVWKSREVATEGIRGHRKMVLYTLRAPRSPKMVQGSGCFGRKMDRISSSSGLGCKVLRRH
For experiment [10] the target is unchanged. Nature of the experiment: sandwich CMIA, capture 15F11, analyte 0.0 pM (blank).
For experiment [11], the target named is glycosylated human proBNP (HyTest, Turku, Finland; Catalog No. 8GOB2) (human). Put plainly: sandwich CMIA, capture 15F11, 86.6 pM, against human NT-proBNP.
Experiment [12] has as its target human pro B-type natriuretic peptide (HyTest, Turku, Finland; Catalog No. 8PRO8) (human). The description is as above.

Chain of human NT-pro B-type natriuretic peptide (HyTest, Turku, Finland; Catalog No. 8NT1) (human) (chain, as listed by the source): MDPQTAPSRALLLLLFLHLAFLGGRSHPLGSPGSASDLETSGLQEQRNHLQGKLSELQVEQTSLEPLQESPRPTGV

On to “anti-human NT-proBNP/anti-human proBNP labeled monoclonal antibody 29D12 (HyTest, Turku, Finland)”, for which the Analyte rlus worked out at 1020 rlus in experiment [1]; 19300 rlus in experiment [2]; 3830 rlus in experiment [3]; 16400 rlus in experiment [4]; 14600 rlus in [5]; 6140 rlus in experiment [6]. The Analyte rlus in experiment [7] was determined as 892 rlus; in experiment [8], 892 rlus; in experiment [9], 892 rlus; in experiment [10], 912 rlus. Further, the results for the % Cross-reactivity in experiment [11] and in experiment [12] were 136% and 49.3%, respectively.
